The results in this text go back to patent publication US20220125907A1 (VAXCYTE, published 2022).

The series concerns the molecule itself. The experiment in a line: SEC-MALS of purified IpaB in solution (self-association). In general terms: Size exclusion chromatography separates by hydrodynamic size, large species first.

B1: Invasion Plasmid Antigen B (IpaB), wild type, full length (other)
chain: MHNVNTTTTGLSLAKILASTELGDNTIQAGNDAANKLFSLTIADLTANKNINTTNAHSTSNILIPELKAPKSLNASSQLTLLIGNLIQILGEKSLTALTNKITAWKSQQQARQQKNLEFSDKINTLLSETEGLTRDYEKQINKLKNADSKIKDLENKINQIQTRLSELDPDSPEKKKLSREEIQLTIKKDAAVKDRTLIEQKTLSIHSKLTDKSMQLEKEIDSFSAFSNTASAEQLSTQQKSLTGLASVTQLMATFIQLVGKNNEESLKNDLALFQSLQESRKTEMERKSDEYAAEVRKAEELNRVMGCVGKILGALLTIVSVVAAAFSGGASLALADVGLALMVTDAIVQAATGNSFMEQALNPIMKAVIEPLIKLLSDAFTKMLEGLGVDSKKAKMIGSILGAIAGALVLVAAVVLVATVGKQAAAKLAENIGKIIGKTLTDLIPKFLKNFSSQLDDLITNAVARLNKFLGAAGDEVISKQIISTHLNQAVLLGESVNSATQAGGSVASAVFQNSASTNLADLTLSKYQVEQLSKYISEAIEKFGQLQEVIADLLASMSNSQANRTDVAKAILQQTTA
notes: also called WT IpaB; IpaB WT; not shown: histidine tag
As for B1, the binding result is “binds”.
